Experimental data from paper PMC7240051.

Target: BnaA10.ABF2-cYFP (Brassica napus)

## BnaC7.RGA-nYFP (full length) (natural protein)
  dual-luciferase assay in tobacco leaves: activity of pBnaC9.RAB18-LUC with BnaC7.RGA expressed together with BnaA10.ABF2, against the reporter only (BnaA10.ABF2 alone: 3.7 times): 11.8 times

## BnaA6.RGA-nYFP (full length) (natural protein)
  dual-luciferase assay in tobacco leaves: activity of pBnaC9.RAB18-LUC with BnaA6.RGA expressed together with BnaA10.ABF2, against the reporter only (BnaA10.ABF2 alone: 3.7 times): 6.5 times
